For the assay, the target named is VC-OsSLAC1 (rice (Oryza sativa)). Description: split reporter (BiFC, NanoBiT); BiFC with Venus halves (VN, VC) co-expressed in rice protoplasts; confocal microscopy; ER-mCherry as internal control, Venus signal/mCherry signal.

B1: VN-SAPK10 (natural protein)
chain: MDRAALTVGPGMDMPIMHDGDRYELVRDIGSGNFGVARLMRSRADGQLVAVKYIERGDKIDENVQREIINHRSLRHPNIIRFKEVILTPTHLAIVMEYASGGELFERICNAGRFSEDEARFFFQQLISGVSYCHSMQVCHRDLKLENTLLDGSTAPRLKICDFGYSKSSVLHSQPKSTVGTPAYIAPEVLLKKEYDGKIADVWSCGVTLYVMLVGAYPFEDPDEPKNFRKTIQRILGVQYSIPDYVHISPECRDLIARIFVANPATRISIPEIRNHPWFLKNLPADLMDDSKMSSQYEEPEQPMQSMDEIMQILAEATIPAAGSGGINQFLNDGLDLDDDMEDLDSDPDLDVESSGEIVYAM
The molecule B1 registered a BiFC fluorescence (Venus signal/mCherry signal) relative to VN-Hd3A with VC-SLAC1 of 3 fold.

The values above are taken from PMC6536566.
